Measured values taken from the supplement of paper PMC7125110.
± gives the standard error. For some assays here: This sample holds only a part of the variants without activity.

B1: glmS ribozyme (parent)
chain: AUAAAAGCGCCAGAACUACAGAAAUGUAGUUGACGAGGAGGAGGUUUAUCGAAUUUUCGGCGGAUGCCUCCAAA

Columns and labels:
Conditions in all cases: with glucosamine-6-phosphate
glucosamine-6-phosphate [1] = variants of: B1; experiment: kcat; higher = faster cleavage; RNA array
Procedure, shortened: (§1)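 Tiles bearing barcoded ribozyme variants, transcribed in situ by E. coli RNA polymerase on sequenced MiSeq chips, were imaged over ~14 h at 37 °C using a hybridised Cy3 probe. Glucosamine-6-phosphate was supplied at 40 μM to 10 mM in HEPES/KCl/Mg(OAc)2 buffer. kobs came from one- or two-exponential decay fits to normalised per-tile medians, and weighted Michaelis–Menten fits then provided kcat and KM.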

glucosamine-6-phosphate [2] = variants of: B1; experiment: KM; higher = weaker cofactor use; RNA array
Procedure, shortened: as §1

glucosamine-6-phosphate [3] = variants of: B1; experiment: self-cleavage kobs at 40 uM GlcN6P; higher = faster cleavage; RNA array
Procedure, shortened: as §1

glucosamine-6-phosphate [4] = variants of: B1; experiment: self-cleavage kobs at 160 uM GlcN6P; higher = faster cleavage; RNA array
Procedure, shortened: as §1

glucosamine-6-phosphate [5] = variants of: B1; experiment: self-cleavage kobs at 640 uM GlcN6P; higher = faster cleavage; RNA array
Procedure, shortened: as §1

glucosamine-6-phosphate [6] = variants of: B1; experiment: self-cleavage kobs at 2500 uM GlcN6P; higher = faster cleavage; RNA array
Procedure, shortened: as §1

glucosamine-6-phosphate [7] = variants of: B1; experiment: self-cleavage kobs at 10000 uM GlcN6P; higher = faster cleavage; RNA array
Procedure, shortened: as §1

Row | Variant | kcat (glucosamine-6-phosphate [1]) [s⁻¹] | KM (glucosamine-6-phosphate [2]) [µM] | self-cleavage kobs at 40 uM GlcN6P (glucosamine-6-phosphate [3]) [s⁻¹] | self-cleavage kobs at 160 uM GlcN6P (glucosamine-6-phosphate [4]) [s⁻¹] | self-cleavage kobs at 640 uM GlcN6P (glucosamine-6-phosphate [5]) [s⁻¹] | self-cleavage kobs at 2500 uM GlcN6P (glucosamine-6-phosphate [6]) [s⁻¹] | self-cleavage kobs at 10000 uM GlcN6P (glucosamine-6-phosphate [7]) [s⁻¹]
1 | AUAAAAGCGCCAGAGCUACAGAAAUGUAGUAGACGAGGAGGAGGUUUAUCGAAUUUUCGGCGGAUGCCUCCAAA [A15G U31A] | 0.0107 ± 0.0009 | 2220 ± 260 | 0.000199 ± 4.4e-05 | 0.000722 ± 0.00015 | 0.00236 ± 0.00063 | 0.00493 ± 0.0014 | 0.00926 ± 0.0017
2 | AUAAAAGCGCCAGAGCUACAGAAAUGUAGUGGACGAGGAGGAGGUUUAUCGAAUUUUCGGCGGAUGCCUCCAAA [A15G U31G] | 0.00736 ± 0.0015 | 4370 ± 1200 | 7.87e-05 ± 9.4e-06 | 0.000202 ± 3.2e-05 | 0.0011 ± 0.00015 | 0.00262 ± 0.00033 | 0.00513 ± 0.00051
3 | AUAAAAGCGCCAGAGCUACAGAAAUGUAGUUGACGAGGAGGAGGUUUAUCGAAUUUUCGGCGGAUGCGUCCAAA [A15G C68G] | 0.000113 ± 3e-06 | 367 ± 35 |  | 3.48e-05 ± 1.2e-05 | 7.26e-05 ± 1.2e-05 | 9.45e-05 ± 1.6e-05 | 0.000113 ± 1.7e-05
4 | AUAAAAGCGCCAGAGCUACAGAAAUGUAGUUGACGAGGAGGAGGCUUAUCGAAUUUUCGGCGGAUGCCUCCAAA [A15G U45C] | 0.00752 ± 0.0016 | 5570 ± 1600 | 7.04e-05 ± 1.4e-05 | 0.000179 ± 3.2e-05 | 0.000853 ± 0.00012 | 0.00219 ± 0.00027 | 0.00497 ± 0.00061
5 | AUAAAAGCGCCAGAGCUACAGAAAUGUAGAUGACGAGGAGGAGGUUUAUCGAAUUUUCGGCGGAUGCCUCCAAA [A15G U30A] | 0.018 ± 0.005 | 923 ± 360 | 0.000649 ± 0.00011 | 0.00255 ± 0.00036 | 0.00983 ± 0.0012 | 0.0165 ± 0.0028 | 0.0115 ± 0.003
6 | AUAAAAGCGCCAGAGCUACAGAAAUGUAGCUGACGAGGAGGAGGUUUAUCGAAUUUUCGGCGGAUGCCUCCAAA [A15G U30C] | 0.0225 ± 0.0031 | 871 ± 170 | 0.00107 ± 0.00018 | 0.00315 ± 0.00047 | 0.0102 ± 0.0015 | 0.0197 ± 0.005 | 0.0186 ± 0.0045
7 | AUAAAAGCGCCAGAGCUACAGAAAUGUAGUUAACGAGGAGGAGGUUUAUCGAAUUUUCGGCGGAUGCCUGCAAA [A15G G32A C70G] | 9.72e-05 ± 1.2e-05 |  |  | 0.000115 ± 3.5e-05 | 0.000107 ± 2.6e-05 | 7.81e-05 ± 3e-05 | 9.41e-05 ± 1.1e-05
8 | AUAAAAGCGCCAGAGCUACAGAAAUGUAGUUGACGAGGAUGAGGUUUAUCGAAUUUUCGGCGGAUGCCUCCAAA [A15G G40U] | 0.00552 ± 0.00099 | 1330 ± 360 | 0.000202 ± 2.1e-05 | 0.000466 ± 6.2e-05 | 0.00181 ± 0.0002 | 0.00448 ± 0.00068 | 0.00473 ± 0.00045
9 | AUAAAAGCGCCAGAGCUACAGAAAUGUAGUUGACGAGGAAGAGGUUUAUCGAAUUUUCGGCGGAUGCCUCCAAA [A15G G40A] | 0.0072 ± 0.0015 | 1290 ± 400 | 0.000316 ± 8.2e-05 | 0.000754 ± 0.00016 | 0.00207 ± 0.00049 | 0.00475 ± 0.00096 | 0.00713 ± 0.002
10 | AUAAAAGCGCCAGAGCUACAGAAAUGUAGUUGACGAGGAGGAGGUUUAUCGAAUUUUCAGCGGAUGCCUCCAAA [A15G G59A] | 0.000151 ± 1.1e-05 | 3440 ± 750 |  |  |  | 6.85e-05 ± 2.3e-05 | 0.000112 ± 1.5e-05
11 | AUAAAAGCGCCAGAGCUACAGAAAUGUAGUUGACGAAGAGGAGGUUUAUCGAAUUUUCGGCGGAUGCCUCCAAA [A15G G37A] | 0.00317 ± 0.0014 |  | 8.19e-05 ± 9.7e-06 | 0.000154 ± 2.7e-05 | 0.000515 ± 7.3e-05 | 0.00123 ± 0.00023 | 0.00292 ± 0.00037
12 | AUAAAAGCGCCAGAGCUACAGAAAUGUAGUUGACGAGGAGGAGGUUUAUCAAAUUUUCGGCGGAUGCCUCCAAA [A15G G51A] | < 1e-05 |  |  | < 1e-05 | < 1e-05 |  | 
13 | AUAAAAGCGCCAGAGCUACAGAAAUGUAGUUGACGAGGAGGAGGUUUAUCGAAUUUUCGUCGGAUGCCUCCAAA [A15G G60U] | < 1e-05 |  | < 1e-05 | < 1e-05 | < 1e-05 |  | 
